# What was measured:
# Assay in all cases: IEDB peptide-MHC binding, purified MHC/competitive/radioactivity; ≥ and ≤ were set here for values at or beyond the usual limits of such assays
# Details in all cases: source organism: Homo sapiens
# [1] = biological target: HLA-A*33:01
# [2] = biological target: HLA-A*30:01
# [3] = biological target: HLA-A*31:01
# [4] = biological target: HLA-A*03:01
# [5] = biological target: HLA-A*68:01
# [6] = biological target: HLA-A*11:01
IC50 [1] [nM],IC50 [2] [nM],IC50 [3] [nM],IC50 [4] [nM],IC50 [5] [nM],IC50 [6] [nM],Sequence
60,≥ 70000,≥ 70000,1070,10,63,EVYEGVWKK
63600,10100,9870,2280,4200,2280,KLGGGQYGE

# Source: the Immune Epitope Database (IEDB)
